Data as given in patent US20230399394A1 (SUNSHINE GUOJIAN PHARMACEUTICAL SHANGHAI, published 2023).

Assays:
Human IL-33-his [1] = target: T1, Human IL-33-his (human, UniProt O95760 112-270, biotinylated with EZ-Link NHS-Biotin where used as IL-33-his-biotin); assay: ELISA as Example 9, IL-33-his-biotin on streptavidin plate
T1 construct: Used plain (SPR, cell assays) and biotinylated (ELISA); also called IL-33-his-biotin
T1 sequence: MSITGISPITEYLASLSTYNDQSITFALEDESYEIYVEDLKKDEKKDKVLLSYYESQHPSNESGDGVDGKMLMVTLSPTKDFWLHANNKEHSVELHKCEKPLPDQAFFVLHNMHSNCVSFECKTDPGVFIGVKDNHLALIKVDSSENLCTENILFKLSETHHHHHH

Human IL-33-his [2] = target: T1, Human IL-33-his; assay: ELISA, IL-33-his-biotin on streptavidin plate, anti-human Fc detection
Protocol: SA protein was diluted to 2 μg/mL to coat ELISA plate at 100 μL/well overnight at 4° C. The plate was washed with PBST (PBS containing 0.05% Tween20) for 3 times, and blocked with 2% BSA prepared in PBS at 200 μL/well, at room temperature for 2 h. After the plate was washed twice with PBST, IL-33-his-biotin protein was diluted to 1 μg/mL with 1% BSA prepared in PBST, and was added to ELISA plate at 100 μL/well. The plate was incubated at room temperature for 1 h, and each monoclonal antibody was diluted with 1% BSA prepared in PBST in a 3-fold gradient. The highest concentration of antibody was 10 μg/mL, and the antibody was diluted for 12 gradients. Each diluted monoclonal antibody was added to ELISA wells with 100 μL/well, and the plate was incubated at room temperature for 1 h. Each sample was added to duplicate wells in parallel. The plate was washed with PBST for 3 times, and HRP-anti human IgG Fc secondary antibody prepared with PBST was diluted at an appropriate ratio, and was added to ELISA wells at 100 μL/well. The plate was incubated at room temperature for 1 h. After washing with PBST for 3 times, TMB developing solution was added at 100 μL/well. When the development met expectations, 2M H₂SO₄ was added to terminate the chromogenic reaction at 70 μL/well. Each reaction solution was shaken uniformly and OD450 nm was read on a microplate reader. The data was analyzed and EC₅₀ was calculated.

Human IL-33-his [3] = target: T1, Human IL-33-his; assay: competition ELISA, antibody mixed with IL-33-his-biotin, ST2-Fc on plate; competitor ST2-Fc
Protocol: (§1) ST2-Fc protein was diluted to 1 μg/mL with ELISA coating solution to coat ELISA plate with 100 μL/well. The plate was placed in a wet box at 4° C. for 16 h for coating. The ELISA plate was washed 3 times with PBST, and then was blocked with 2% BSA prepared in PBS at 200 μL/well at room temperature for 2 h. The plate was washed once with PBST, and was patted dry to remove the excess blocking solution. Each monoclonal antibody was diluted with 1% BSA prepared in PBST in a 3-fold gradient. The highest concentration of antibody was 10 μg/mL, and the antibody was diluted for 11 gradients. The diluted antibody was mixed 1:1 with 10 ng/ml IL-33-his-biotin, and then the mixture was added into the ELISA well at 100 μL/well. The plate was incubated at room temperature for 1 h. Each concentration was added to duplicate wells in parallel (maximum final concentration of antibody was […], final concentration of IL-33-his-biotin was 5 ng/mL). Unbound or non-specifically bound primary antibodies were washed out. According to the instructions of the antibody, HRP labeled streptavidin secondary antibody was diluted to an appropriate concentration with antibody diluent solution, then it was added to ELISA plate with 100 μL/well, and was incubated at room temperature for 1 h. The ELISA plate was washed with PBST for 5 times, and was patted dry on absorbent paper to remove excess liquid. TMB developing solution was added with 100 μL/well for development to an appropriate degree. 2M H₂SO₄ was added with 70 μL/well to terminate development, and the absorbance was measured at 450 nm on a multifunctional microplate reader. The data were analyzed.

Human IL-33-his [4] = target: T1, Human IL-33-his; assay: cell-based or functional assay
Human IL-33-his [5] = target: T1, Human IL-33-his; assay: competition ELISA as Example 10, ST2-Fc on plate; competitor ST2-Fc
Protocol: as §1
The blocking effect of the above humanized antibodies on the binding of IL-33 to its receptor ST2 was determined by the ELISA method, and the relevant experimental methods were referred to Example 10.

Human IL-33-his [6] = target: T1, Human IL-33-his; assay: SPR Biacore 8K, antibody captured on Protein A/G chip, IL-33-his as analyte, 1:1 model
Protocol: A chip with covalently coupled Protein A/G (purchased from GE Healthcare, catalog number BR-1005-30) was used to capture each antibody to be tested, and the relevant operating parameters were as follows: The antibody concentration was […], the contact time was 75 s, the flow rate was […], and the regeneration contact time was 30 s. The IL-33-his antigen was diluted with HBS-EP pH7.4 buffer solution (purchased from GE Healthcare, catalog number BR-1006-69). The maximum concentration was 50 nM, and diluted to 0.39 nM by two-fold dilution. Duplicate wells and 0 concentration point well were set, and 6M guanidine hydrochloride solution was used as the regeneration buffer. The sample was injected on Biacore 8K according to the following parameters, the binding time was 180 s, the dissociation time was 900 s, the flow rate was 30 μL/min, and the regeneration contact time was 30 s. After running, Biacore 8K Evaluation Software was used to analyze the data according to the “1:1 binding kinetics model”, and the binding kinetics parameters of each antibody to IL-33 were obtained.

Row | EC50 (Human IL-33-his [1]) | EC50 (Human IL-33-his [2]) | IC50 (Human IL-33-his [3]) | IC50 of inhibition of IFNγ secretion by NK cells induced by IL-33 (Human IL-33-his [4]) | IC50 of the inhibitory effect on IL-6 expression in HUVEC cells induced by IL-33 (Human IL-33-his [4]) | IC50 of the inhibitory effect on the IFN-γ secretion of PBMC induced by IL-33 (Human IL-33-his [4]) | IC50 (Human IL-33-his [5]) | Kd (Human IL-33-his [6]) | koff (Human IL-33-his [6]) | kon (Human IL-33-his [6]) | Binder
1 | 0.255 nM | 0.178 nM | 0.853 nM | – | – | – | – | – | – | – | 871G1-ch (antibody, human IgG4 S228P, kappa, V domains shown, Chimeric: human IgG4 (S228P) and human kappa constant regions; also called chimeric antibody 871G1-ch) VH: QVHLKESGPGLVAPSQSLSITCNVSGFSLSKYGVHWIRQTPGRGLDWLGVLRAGGTISYNSALMSRLSISEDISKSQVFLKMNDLQTDDSAIYFCARDHYYYSSFGGFASWGQGTLVTVSA VL: DIQMTQSPASQSASLGESVTITCLASQTIGAWLAWYRQQPGKSPQLLIYAATRLADGVPSRFSGSGSGTKFSFKINNLQAEDFVIYYCQQLNSTPYTFGGGTRLEMRT
2 | 0.136 nM | – | – | 1.56 nM | 0.05 nM | 1.74 nM | 0.35 nM | 2.97 nM | 0.000576 s⁻¹ | 194000 M⁻¹ s⁻¹ | 874F7-Hu2 (antibody, human IgG4 S228P, kappa, V domains shown, Humanized; also called humanized antibody 874F7-Hu2) VH: QVQLQESGPGLVKPSETLSLTCTVSGFSLSKYGVHWIRQPPGKGLEWLGVLRAGGSTGYNSALMSRLTISKDSSKSQVSLKLSSVTAADTAVYYCVRDHYYYSSYGGFVYWGQGTLVTVSS VL: DIQMTQSPSSVSASVGDRVTITCLASQTIGAWLAWYQQKPGKSPKLLIYAATRLADGVPSRFSGSGSGTDFTLTISSLQPEDFATYYCQQLDSSPYTFGQGTKVEIKR
3 | 0.176 nM | – | – | 0.9 nM | 0.175 nM | 1.06 nM | 0.361 nM | 1.76 nM | 0.000527 s⁻¹ | 300000 M⁻¹ s⁻¹ | 871G1-Hu2 (antibody, human IgG4 S228P, kappa, V domains shown, Humanized; also called humanized antibody 871G1-Hu2) VH: QVQLQESGPGLVKPSETLSLTCTVSGFSLSKYGVHWIRQPPGKGLEWLGVLRAGGTISYNSALMSRLTISEDISKSQVSLKLSSVTAADTAVYYCARDHYYYSSFGGFASWGQGTLVTVSS VL: DIQMTQSPSSVSASVGDRVTITCLASQTIGAWLAWYQQKPGKSPKLLIYAATRLADGVPSRFSGSGSGTDFTLTISSLQPEDFATYYCQQLNSTPYTFGQGTKVEIKR
4 | 0.17 nM | – | – | – | – | – | – | – | – | – | 874F7-HuG (antibody, human IgG4 S228P, kappa, V domains shown, Humanized; also called 874F7-Hµg; humanized antibody 874F7-HuG) VH: QVQLQESGPGLVKPSETLSLTCTVSGFSLSKYGVHWIRQPPGKGLEWIGVLRAGGSTGYNSALMSRVTISVDTSKNQFSLKLSSVTAADTAVYYCARDHYYYSSYGGFVYWGQGTLVTVSS VL: DIQMTQSPSSVSASVGDRVTITCLASQTIGAWLAWYQQKPGKSPKLLIYAATRLADGVPSRFSGSGSGTDFTLTISSLQPEDFATYYCQQLDSSPYTFGQGTKVEIKR
5 | 0.76 nM | – | – | – | – | – | – | – | – | – | 864F3-HuG (antibody, human IgG4 S228P, kappa, V domains shown, Humanized; also called humanized antibody 864F3-HuG) VH: QVQLQESGPGLVKPSETLSLTCTVSGFSLTNYGVHWIRQPPGKGLEWIGVIRAGGSSDYNSALMSRVTISVDTSKNQFSLKLSSVTAADTAVYYCARDHYFSNSYGGSPYWGQGTLVTVSS VL: DIQMTQSPSSLSASVGDRVTITCLASQTIATWLAWYQQKPGKSPKLLIYAATRLADGVPSRFSGSGSGTDFTLTISSLQPEDFATYYCQQLYNTPYTFGQGTKVEIKR
6 | 0.181 nM | – | – | – | – | – | – | – | – | – | 864F3-Hu2 (antibody, human IgG4 S228P, kappa, V domains shown, Humanized; also called humanized antibody 864F3-Hu2) VH: QVQLQESGPGLVKPSETLSLTCTVSGFSLTNYGVHWVRLPPGKGLEWLGVIRAGGSSDYNSALMSRLTISKDNSKSQVSLKLSSVTAADTAVYYCARDHYFSNSYGGSPYWGQGTLVTVSS VL: DIQMTQSPSSLSASVGDRVTITCLASQTIATWLAWYQQKPGKSPKLLIYAATRLADGVPSRFSGSGSGTDFTLTISSLQPEDFATYYCQQLYNTPYTFGQGTKVEIKR
7 | 0.146 nM | – | – | 1.02 nM | 0.147 nM | 0.839 nM | 0.473 nM | 1.36 nM | 0.000439 s⁻¹ | 323000 M⁻¹ s⁻¹ | 864F3-Hu5 (antibody, human IgG4 S228P, kappa, V domains shown, Humanized; also called humanized antibody 864F3-Hu5) VH: QVQLQESGPGLVKPSETLSLTCTVSGFSLSKYGVHWIRQPPGKGLEWLGVLRAGGTISYNSALMSRLTISEDISKSQVSLKLSSVTAADTAVYYCARDHYYYSSFGGFASWGQGTLVTVSS VL: DIQMTQSPSSLSASVGDRVTITCLASQTIATWLAWYQQKPGKSPKLLIYAATRLADGVPSRFSGSGSGTDFTLTISSLQPEDFATYYCQQLYNTPYTFGQGTKVEIKR

The next lines start with the binder.

Row | Binder | EC50 (Human IL-33-his [1]) | EC50 (Human IL-33-his [2]) | IC50 (Human IL-33-his [3]) | IC50 of inhibition of IFNγ secretion by NK cells induced by IL-33 (Human IL-33-his [4]) | IC50 of the inhibitory effect on IL-6 expression in HUVEC cells induced by IL-33 (Human IL-33-his [4]) | IC50 of the inhibitory effect on the IFN-γ secretion of PBMC induced by IL-33 (Human IL-33-his [4]) | IC50 (Human IL-33-his [5]) | Kd (Human IL-33-his [6]) | koff (Human IL-33-his [6]) | kon (Human IL-33-his [6])
8 | 871G1-Hu1 (antibody, human IgG4 S228P, kappa, V domains shown, Humanized; also called humanized antibody 871G1-Hu1) VH: QVQLQESGPGLVKPSETLSLTCTVSGFSLSKYGVHWIRQPPGKGLEWIGVLRAGGTISYNSALMSRVTISEDISKSQVSLKLSSVTAADTAVYYCARDHYYYSSFGGFASWGQGTLVTVSS VL: DIQMTQSPSSVSASVGDRVTITCLASQTIGAWLAWYQQKPGKSPKLLIYAATRLADGVPSRFSGSGSGTDFTLTISSLQPEDFATYYCQQLNSTPYTFGQGTKVEIKR | 0.191 nM | – | – | 0.851 nM | 0.21 nM | 1.4 nM | 0.404 nM | 1.71 nM | 0.000504 s⁻¹ | 295000 M⁻¹ s⁻¹
9 | 864F3-Hu1 (antibody, human IgG4 S228P, kappa, V domains shown, Humanized; also called humanized antibody 864F3-Hu1) VH: QVQLQESGPGLVKPSETLSLTCTVSGFSLTNYGVHWIRLPPGKGLEWIGVIRAGGSSDYNSALMSRVTISKDNSKSQVSLKLSSVTAADTAVYYCARDHYFSNSYGGSPYWGQGTLVTVSS VL: DIQMTQSPSSLSASVGDRVTITCLASQTIATWLAWYQQKPGKSPKLLIYAATRLADGVPSRFSGSGSGTDFTLTISSLQPEDFATYYCQQLYNTPYTFGQGTKVEIKR | 0.249 nM | – | – | – | – | – | – | – | – | –
10 | 864F3-Hu3 (antibody, human IgG4 S228P, kappa, V domains shown, Humanized; also called humanized antibody 864F3-Hu3) VH: QVQLQESGPGLVKPSETLSLTCTVSGFSLSKYGVHWIRQPPGKGLEWIGVLRAGGTISYNSALMSRVTISVDTSKNQFSLKLSSVTAADTAVYYCARDHYYYSSFGGFASWGQGTLVTVSS VL: DIQMTQSPSSLSASVGDRVTITCLASQTIATWLAWYQQKPGKSPKLLIYAATRLADGVPSRFSGSGSGTDFTLTISSLQPEDFATYYCQQLYNTPYTFGQGTKVEIKR | 0.138 nM | – | – | – | – | – | – | – | – | –
11 | 871G1-HuG (antibody, human IgG4 S228P, kappa, V domains shown, Humanized; also called humanized antibody 871G1-HuG) VH: QVQLQESGPGLVKPSETLSLTCTVSGFSLSKYGVHWIRQPPGKGLEWIGVLRAGGTISYNSALMSRVTISVDTSKNQFSLKLSSVTAADTAVYYCARDHYYYSSFGGFASWGQGTLVTVSS VL: DIQMTQSPSSVSASVGDRVTITCLASQTIGAWLAWYQQKPGKSPKLLIYAATRLADGVPSRFSGSGSGTDFTLTISSLQPEDFATYYCQQLNSTPYTFGQGTKVEIKR | 0.187 nM | – | – | – | – | – | – | – | – | –
